Where “and” joins values, the source holds several entries; their conditions need not be identical. Equal entries are not always repeated.
B1: anti-lysozyme nanobody: Cab-Lys3 with T101 of the CDR3 loop mutated to serine (VHH)
VHH: DVQLQASGGGSVQAGGSLRLSCAASGYTIGPYCMGWFRQAPGKEREGVAAINMGGGITYYADSVKGRFTISQDNAKNTVYLLMNSLEPEDTAIYYCAADSSIYASYYECGHGLSTGGYGYDSWGQGTQVTVSS
notes: parent chain is the VHH Cab-Lys3 (De Genst et al. 2002), with T101 in the CDR3 loop changed to serine; 14.2 kDa; also called NB; VHH; source: T7-Express E. coli (pET-22B), purified (Profinity IMAC, Superdex-75)

What was measured:
[1] = target: T1, unlabeled lysozyme (Gallus gallus, UniProt P00698); assay: label-free microscale thermophoresis (NT.LabelFree); assay type: binding; settings: unlabelled protein; buffer not printed in main text for this test
T1 construct: gene LYZ; native hen egg white lysozyme (mature chain, signal peptide removed), unlabelled; source printed for the stock used for labelling
T1 sequence (P00698 19-147): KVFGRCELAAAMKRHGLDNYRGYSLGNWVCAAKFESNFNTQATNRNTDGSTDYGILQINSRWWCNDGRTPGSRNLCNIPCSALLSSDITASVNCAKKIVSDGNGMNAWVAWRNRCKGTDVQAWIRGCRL

[2] = target: T2, Lysozyme isolated from hen egg white, labeled with RED-NHS 2nd generation dye (Gallus gallus (hen egg white), UniProt P00698, RED-NHS 2nd generation dye, amine reactive; degree of labeling ~0.70); assay: other fluorescence titration; analysis of the absolute (initial) fluorescence of the same Monolith datasets; RED-NHS labeled lysozyme as target, nanobody as titrated ligand; PBS+; triplicates on 40 instruments; means over instruments; analysed centrally with MOAA and PALMIST and by 8 of 40 users; settings: both partners purified
T2 construct: lysozyme isolated from hen egg white (ROCHE Cat.No. 10837059001); also called labeled lysozyme; red labeled lysozyme; source: bought: ROCHE Cat.No. 10837059001 (isolated from hen egg white); labeled with the Monolith NT Protein Labeling Kit RED-NHS 2nd Generation
T2 sequence (P00698 19-147): as above

[3] = target: T2, Lysozyme isolated from hen egg white, …; assay: MST; TRIC analysis of the MST/TRIC time trace; RED-NHS labeled lysozyme as target, nanobody as titrated ligand; PBS+ (10 mM phosphate pH 7.4, 2.7 mM KCl, 137 mM NaCl, 0.005% Tween-20); premium coated capillaries; triplicates on 40 Monolith NT.115/NT.Pico instruments; means over instruments; analysed centrally with MOAA and PALMIST (hot region 0.5-1.5 s) and individually by users; fitted without correction for the …; settings: both partners purified
[4] = target: T2, Lysozyme isolated from hen egg white, …; assay: as above; settings: both partners purified; remark: listed apart in the source

Row | Molecule | Kd [1] | Kd [2] | Kd [3] | Kd [4]
1 | CC(=O)N[C@H]1[C@H](O[C@H]2[C@H](O)[C@@H](NC(C)=O)C(O)O[C@@H]2CO)O[C@H](CO)[C@@H](O[C@@H]2O[C@H](CO)[C@@H](O)[C@H](O)[C@H]2NC(C)=O)[C@@H]1O (stereo partly shown) [NAG3] | ~4000 nM |  |  | 
2 | B1 |  | 256 nM and 259 nM and 272 nM | 1170 nM | 111 nM and 119 nM and 76 nM

Source: publication PMC8519905, “Reproducibility and accuracy of microscale thermophoresis in the NanoTemper Monolith: a multi laboratory benchmark study” (European Biophysics Journal, 2021)
